Several values for one entry are separate records, joined by “and”; a condition that tells them apart may be missing. Equal entries are not always repeated.
Tests used:
[1] = target: γ-tubulin small complex (γTuSC) with γ-tubulin^S48C/S153C, Spc97-YFP and Spc98-CFP (budding yeast) (UniProt P53378); test: FRET or BRET
[2] = target: E. coli-expressed GST-Spc110p^1-220 (budding yeast) (UniProt P32380); test: SEC-MALS
SEC-MALS = target: the molecule itself; test: SEC-MALS

Spc110p^1-220 tetramer (Spc110p^1-220 fused with the tetramer-forming mutant coiled-coil domain of GCN4, GCN4-LI) (from UniProt P32380 1-220)
Kd [1]: 4 nM | Kd2 (Spc110p tetramer with a single γTuSC) [1]: 43 nM | Kd3 (a second γTuSC binding to the complex of Spc110p tetramer and one γTuSC) [1]: 3 nM

E. coli-expressed GST-Spc110p^1-220 (from UniProt P32380 1-220) (domain or fragment)
stoichiometry N [2]: 2 and 4

B1: Untagged Spc110p^1-220 (domain or fragment, budding yeast, UniProt P32380 1-220, looked up)
chain: MDEASHLPNGSLKNMEFTPVGFIKSKRNTTQTQVVSPTKVPNANNGDENEGPVKKRQRRSIDDTIDSTRLFSEASQFDDSFPEIKANIPPSPRSGNVDKSRKRNLIDDLKKDVPMSQPLKEQEVREHQMKKERFDRALESKLLGKRHITYANSDISNKELYINEIKSLKHEIKELRKEKNDTLNNYDTLEEETDDLKNRLQALEKELDAKNKIVNSRKVD
stoichiometry N (SEC-MALS): 2
